# Where no end group is shown, it is not given here. Side-chain parts run from the residue outwards. [ ]: non-standard residue; d: D form. The star is where a group is joined. Stearoyl = CCCCCCCCCCCCCCCCCC(=O)*; Palmitoyl = CCCCCCCCCCCCCCCC(=O)*; Myristoyl = CCCCCCCCCCCCCC(=O)*; Glu = glutamate linker; Chl = cholesterol
# B1: JM#179 (peptide)
# peptide: M[dL]RWSRK(Palmitoyl)LP-NH2
# modifications: N-terminus assumed
# SMILES: CCCCCCCCCCCCCCCC(=O)NCCCC[C@H](NC(=O)[C@H](CCCNC(=N)N)NC(=O)[C@H](CO)NC(=O)[C@H](Cc1c[nH]c2ccccc12)NC(=O)[C@H](CCCNC(=N)N)NC(=O)[C@@H](CC(C)C)NC(=O)[C@@H](N)CCSC)C(=O)N[C@@H](CC(C)C)C(=O)N1CCC[C@H]1C(N)=O
# B2: JM#181 (peptide)
# peptide: M[dL]RWSRK(Palmitoyl)-NH2
# modifications: N-terminus assumed
# SMILES: CCCCCCCCCCCCCCCC(=O)NCCCC[C@H](NC(=O)[C@H](CCCNC(=N)N)NC(=O)[C@H](CO)NC(=O)[C@H](Cc1c[nH]c2ccccc12)NC(=O)[C@H](CCCNC(=N)N)NC(=O)[C@@H](CC(C)C)NC(=O)[C@@H](N)CCSC)C(N)=O
# B3: JM#236 (peptide)
# peptide: [dL]LRWSRK(Palmitoyl)-NH2
# modifications: N-terminus assumed
# SMILES: CCCCCCCCCCCCCCCC(=O)NCCCC[C@H](NC(=O)[C@H](CCCNC(=N)N)NC(=O)[C@H](CO)NC(=O)[C@H](Cc1c[nH]c2ccccc12)NC(=O)[C@H](CCCNC(=N)N)NC(=O)[C@H](CC(C)C)NC(=O)[C@H](N)CC(C)C)C(N)=O
# B4: JM#261 (peptide)
# peptide: [dL]LRWSRK(Myristoyl)-NH2
# modifications: N-terminus assumed
# SMILES: CCCCCCCCCCCCCC(=O)NCCCC[C@H](NC(=O)[C@H](CCCNC(=N)N)NC(=O)[C@H](CO)NC(=O)[C@H](Cc1c[nH]c2ccccc12)NC(=O)[C@H](CCCNC(=N)N)NC(=O)[C@H](CC(C)C)NC(=O)[C@H](N)CC(C)C)C(N)=O
# Molecular target: CXC chemokine receptor type 4 (CXCR4) (human, UniProt P61073 1-352)
# Assay: cell-based or functional assay
# Chain of CXC chemokine receptor type 4 (CXCR4) (P61073 whole entry): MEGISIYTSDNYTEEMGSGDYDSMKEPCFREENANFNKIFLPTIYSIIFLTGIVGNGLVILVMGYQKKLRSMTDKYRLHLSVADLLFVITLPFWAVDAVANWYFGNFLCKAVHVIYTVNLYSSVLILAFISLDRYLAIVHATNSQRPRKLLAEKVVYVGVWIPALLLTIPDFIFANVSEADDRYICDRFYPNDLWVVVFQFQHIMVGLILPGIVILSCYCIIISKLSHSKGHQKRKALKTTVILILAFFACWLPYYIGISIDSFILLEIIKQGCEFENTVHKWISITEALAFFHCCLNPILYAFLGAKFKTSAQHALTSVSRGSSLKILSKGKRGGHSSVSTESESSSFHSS
Binder,"IC50, HIV inhibition assay [nM]","IC50, HIV-1 inhibition assay [nM]","IC50, X4-HIV-1 inhibition assay [nM]",fold increase of anti-HIV-1 potency compared to WSC02 [fold]
Ac-[dS]LRWSRKMPCVS [JM#26],> 150,,,
XLRWSRKMPCVS (d-M at position 1) [JM#28],> 150,246,,
[dL]LRWSRKMPCVS [JM#29],> 150,,,
[dF]LRWSRKMPCVS [JM#30],> 150,,,
GLRWSRKMPCVS [JM#31],> 150,,,
Ac-SMRWSRKMPCVS [JM#32],> 150,,,
Ac-[dS]MRWSRKMPCVS [JM#33],> 150,,,
[dM]MRWSRKMPCVS [JM#35],> 150,,,
[dL]MRWSRKMPCVS (ends and bridges not checked) [JM#36],> 150,206,,
[dF]MRWSRKMPCVS [JM#37],> 150,,,
XMRWSRKMPCVS (d-G at position 1 (so in the source)) [JM#38],> 150,,,
IXRWSRKLPCVS (d-L at position 2) [JM#41],> 150,,,
I[dL]RWSRKMPCVS [JM#42],> 150,,,
MXRWSRKMPCVS (d-L at position 2) [JM#44],> 150,,,
IVRWSKKVP-NH2 [JM#106],> 150,,,
IVRWSKK-NH2 [JM#110],> 150,,,
ILRWSRKLPCVS (not fully specified (residue 7)) [JM#143],> 150,,5,> 60
ILRWSRKLPCK([Glu-Palmitoyl])S [JM#145],> 150,,,
IYRWSRKMPCLS [JM#146],> 150,,,
ILRWSRK([Glu-Palmitoyl])MPCLS [JM#148],> 150,,,

Binder,"IC50, HIV inhibition assay [nM]","IC50, HIV-1 inhibition assay [nM]","IC50, X4-HIV-1 inhibition assay [nM]",fold increase of anti-HIV-1 potency compared to WSC02 [fold]
IVRWSKKVPSVS [JM#151],> 150,,,
IVRWSK(Palmitoyl)K-NH2 [JM#164],> 150,,,
IVRWSKK(Palmitoyl)-NH2 [JM#165],> 150,,,
IVRWSK(Palmitoyl)KVPCVS [JM#168],> 150,,,
[dI]LRWSRK-NH2 [JM#173],> 150,,,
[dI]LRWSRK(Palmitoyl)LP-NH2 [JM#175],> 150,,,
[dL]MRWSRK(Palmitoyl)MPCVS [JM#176],> 150,,,
B1,> 150,,,
B2,> 150,,,
ILRWSRK(Stearoyl)LPCVS [JM#182],> 150,,,
ILRWSRK(Chl)LPCVS [JM#184],> 150,,,
Ac-ILRWSRKLPCVS [JM#185],> 150,,,
VLRWSRKLPCVS [JM#189],> 150,,,
ILRWSRKLPCVS (not fully specified (residue 7)) [JM#204],> 150,,,
ILRWSRK(Dec)LPCVS [JM#215],> 150,,,
B3,> 150,,,
[dI]LRWSRK(Palmitoyl)-NH2 [JM#237],> 150,,,
B4,> 150,,,
ILRWSRK([Glu-Palmitoyl])LPSVS [SEQ ID NO.: 163],> 150,,,

# From patent publication US20230131339A1, “EPI-X4 BASED PEPTIDES AND DERIVATIVES THEREOF” (Universitaet Ulm, priority 2020, published 2023)
